T1: Rat Epo (rat, UniProt P29676 27-192)
T1 sequence: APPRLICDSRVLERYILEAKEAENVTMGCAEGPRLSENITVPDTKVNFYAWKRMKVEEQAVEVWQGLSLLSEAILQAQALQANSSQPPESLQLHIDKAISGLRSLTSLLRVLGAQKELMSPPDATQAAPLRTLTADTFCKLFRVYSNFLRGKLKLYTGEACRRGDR

T2: Mouse Epo (mouse, UniProt P07321 27-192)
T2 sequence: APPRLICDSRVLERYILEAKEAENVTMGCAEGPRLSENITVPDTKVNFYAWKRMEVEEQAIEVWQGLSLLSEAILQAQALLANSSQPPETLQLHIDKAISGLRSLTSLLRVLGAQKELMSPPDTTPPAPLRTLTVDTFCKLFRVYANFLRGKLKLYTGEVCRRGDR

T3: Rabbit Epo (rabbit, UniProt Q9GKA2 29-195, limits assumed)
T3 sequence: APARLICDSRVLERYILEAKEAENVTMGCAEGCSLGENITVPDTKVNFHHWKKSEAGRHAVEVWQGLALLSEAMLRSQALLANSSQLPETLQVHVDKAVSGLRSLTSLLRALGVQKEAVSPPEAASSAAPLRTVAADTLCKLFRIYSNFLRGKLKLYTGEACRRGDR


Key:
Rat Epo [1] = target: T1, Rat Epo; test: solution equilibrium titration (SET), MSD ECL read-out, Fab with Epo titration
Experimental: (§1) In SET, a constant amount of antibody is incubated with different concentrations of antigen until equilibrium is reached. The concentration of free antibody in the equilibrated solution is determined by applying the solution on an antigen coated MSD™ plate (Meso Scale Discovery™) followed by incubation with an ECL-labeled secondary antibody and measurement of signal intensity. […] If a sufficient number of antigen concentrations in a matching range are available, the titration curve allows for a reasonable determination of the affinity, using the appropriate fit model.
(§2) Streptavidin-coated standard MSD plates (Meso-Scale Discovery, 384-well: MSD cat #L11 SA) were blocked with 25 μl incubation buffer at RT for 1 hr. […] Plates were washed 3× in TBST buffer. […] Plates were washed 3× in TBST buffer. 25 μl detection antibody was added (Anti-Human (Goat) Sulfo-TAG, 1:1000 in incubation buffer, MSD cat #R32AJ-1), and incubated at RT for 60 min. Plates were washed 3× in wash buffer, and 50 μl of 1× MSD Read buffer T was added (with surfactant, MSD cat #R92TC-1). Plates were read on a MSD Spector Imager 6000.

Mouse Epo [2] = target: T2, Mouse Epo; test: as above
Experimental: as §1, §2

Rabbit Epo [3] = target: T3, Rabbit Epo; test: as above
Experimental: as §1, §2

Rat Epo [4] = target: T1, Rat Epo; test: SPR (Biacore T200), Fab captured by anti-human Fab, Epo as analyte, 25 C
Experimental: (§3) Three flow cells were utilized for the method run. […] Both capture and binding steps were carried out on flow cells 2-4.
(§4) The resulting signals were adjusted by double referencing, thus subtracting the refraction index values from the reference flow cell and the binding step with no analyte. Data was collected at 10 Hz and analyzed using the Biacore® T100 Evaluation Software Version 1.1 (GE Healthcare). This program uses a global fitting analysis method for the determination of rate and affinity constants for each interaction.

Mouse Epo [5] = target: T2, Mouse Epo; test: as above
Experimental: as §3, §4

Rabbit Epo [6] = target: T3, Rabbit Epo; test: as above
Experimental: as §3, §4

Mouse Epo [7] = target: T2, Mouse Epo; test: SET; mouse Epo
Experimental: as §1, §2

Rat Epo [8] = target: T1, Rat Epo; test: SET; rat Epo
Experimental: as §1, §2

Rat Epo [9] = target: T1, Rat Epo; test: SET
Experimental: as §1, §2

Mouse Epo [10] = target: T2, Mouse Epo; test: SET
Experimental: as §1, §2

Rat Epo [11] = target: T1, Rat Epo; test: solution equilibrium titration (SET), MSD ECL read-out, Fab with Epo titration; single datapoint
Experimental: as §1, §2

Mouse Epo [12] = target: T2, Mouse Epo; test: as above
Experimental: as §1, §2

Rat Epo [13] = target: T1, Rat Epo; test: SPR (Biacore T200), Fab captured by anti-human Fab, Epo as analyte, 25 C; single datapoint
Experimental: as §3, §4

Mouse Epo [14] = target: T2, Mouse Epo; test: as above
Experimental: as §3, §4

Rabbit Epo [15] = target: T3, Rabbit Epo; test: as above
Experimental: as §3, §4

Row | Kd (Rat Epo [1]) [nM] | Kd (Mouse Epo [2]) [nM] | Kd (Rabbit Epo [3]) [nM] | Kd (Rat Epo [4]) [nM] | Kd (Mouse Epo [5]) [nM] | Kd (Rabbit Epo [6]) [nM] | Kd (Mouse Epo [7]) [nM] | Kd (Rat Epo [8]) [nM] | Kd (Rat Epo [9]) [nM] | Kd (Mouse Epo [10]) [nM] | Kd (Rat Epo [11]) [nM] | Kd (Mouse Epo [12]) [nM] | Kd (Rat Epo [13]) [nM] | Kd (Mouse Epo [14]) [nM] | Kd (Rabbit Epo [15]) [nM] | Binder
1 | 0.0012 | 0.0025 | 0.0399 | 0.038 | 0.001 | 0.674 |  |  |  |  |  |  |  |  |  | NVS3 (Fab, V domains shown, Human FabCys format; also called Fab NVS3; derived from initial antibody 11380) VH: QVQLQQSGPGLVKPSQTLSLTCAISGDSVSSNTAAWNWIRQSPSRGLEWLGVIYYRSKWYNDYAVSVKSRITINPDTSKNQFSLQLNSVTPEDTAVYYCARSVPGGDPGLEHAFAYWGRGTLVTVSS VL: SYVLTQPPSVSVAPGKTARITCSGDNLGTYYVEWYQQKPGQAPVLVIYDDSDRPSGIPERFSGSNSGNTATLTISRVEAGDEADYYCASFASWSDSVFGGGTKLTVLG
2 | 0.0127 | 0.037 | 3.86 | 0.0566 | 0.0449 | 5.16 | < 0.05 | < 0.02 |  |  |  |  |  |  |  | NVS2 (Fab, V domains shown, Human FabCys format; also called Fab NVS2; anti-EPO Fab) VH: EVQLVQSGAEVKKPGESLKISCKGSGYSFTSYWIGWVRQMPGKGLEWMGWIDPYRSEIRYSPSFQGQVTISADKSISTAYLQWSSLKASDTAMYYCARVSSEPFDSWGQGTLVTVSS VL: SYVLTQPPSVSVAPGKTARITCSGDKLGDHYAYWYQQKPGQAPVLVIYDDSKRPSGIPERFSGSNSGNTATLTISRVEAGDEADYYCATWTFEGDYVFGGGTKLTVLG
3 | 0.0127 | 0.0078 | 28.7 | 0.0344 | 0.0305 |  |  |  | < 0.01 | < 0.01 |  |  |  |  |  | NVS4 (Fab, V domains shown, Human FabCys format; also called Fab NVS4; derived from initial antibody 11317) VH: QVQLVQSGAEVKKPGASVKVSCKASGYTFTSYYMSWVRQAPGQGLEWMGWINPLKGNTNYAQKFQGRVTMTRDTSISTAYMELSRLRSEDTAVYYCAREGMYFDIWGQGTLVTVSS VL: SYELTQPLSVSVALGQTARITCSGDSIGDKYVYWYQQKPGQAPVLVIYDTNKRPSGIPERFSGSNSGNTATLTISRAQAGDEADYYCQSWDLDFNTYVFGGGTKLTVLG
4 |  |  |  |  |  |  |  |  |  |  | 0.0054 | 0.0161 | 0.041 | 0.022 | 0.661 | NVS1 (Fab, V domains shown, Human FabCys format (VH-CH1 ending EPKSC, lambda light chain); also called Fab NVS1; derived from initial antibody 11319) VH: QVQLVQSGAEVKKPGSSVKVSCKASGGTFRSYAISWVRQAPGQGLEWMGGIDPISGFADYAQKFQGRVTITADESTSTAYMELSSLRSEDTAVYYCARELYYPGTWMAVMAYWGRGTLVTVSS VL: SYVLTQPPSVSVAPGKTARITCSGDNIPEYYVHWYQQKPGQAPVLVIYRDNERPSGIPERFSGSNSGNTATLTISRVEAGDEADYYCQVFDESSWHWVFGGGTKLTVLG
